The text below walks through data of patent publication US20140322163A1 (published 2014).

Residue numbers refer to the chain shown, from its start. In names and notes the source's numbering stands.

By Kd is commonly meant a measure of binding affinity in units of concentration. Read a high Kd as a looser complex.

Targets include YU2_FL; RSC3; ZM109_FL.
Assay in all cases: BLI
(In BLI a coated tip is dipped into the sample, and binding shifts an interference pattern.)

B1: G54A (heavy chain) (antibody, V domains shown)
VH: QVQLVQSGGQMKKPGESMRISCRASGYEFIDCTLNWIRLAPGKRPEWMGWLKPRAGAVNYARPLQGRVTMTRDVYSDTAFLELRSLTVDDTAVYFCTRGKNCDYNWDFEHWGRGTPVIVSS
VL: EIVLTQSPGTLSLSPGETAIISCRTSQYGSLAWYQQRPGQAPRLVIYSGSTRAAGIPDRFSGSRWGPDYNLTISNLESGDFGVYYCQQYEFFGQGTKVQVDI
In the case of B1, the figures for the Kd in the assay with YU2_FL, with RSC3 and with ZM109_FL were 6.51 nM, 2.64 nM and 76 nM, respectively.

B2: V3A (light chain) (antibody, V domains shown)
VH: B1 VH with A55G
VL: B1 VL with V3A
On to B2, for which the Kd came to 27.6 nM with YU2_FL, 6.09 nM in the assay with RSC3 and 54.7 nM with ZM109_FL.
